What was measured:
[1] = target: T1, TNF-like 1A (TL1A) (UniProt O95150 72-251); experiment: flow cytometry of yeast displaying DR3 as Aga2 fusion, incubated with 0.2 uM biotinylated TL1A, detected with streptavidin-APC
T1 construct: Bought soluble TL1A; Biotinylated for yeast display, unlabelled in SPR and ELISA; also called TL1A cytokine
T1 sequence (looked up): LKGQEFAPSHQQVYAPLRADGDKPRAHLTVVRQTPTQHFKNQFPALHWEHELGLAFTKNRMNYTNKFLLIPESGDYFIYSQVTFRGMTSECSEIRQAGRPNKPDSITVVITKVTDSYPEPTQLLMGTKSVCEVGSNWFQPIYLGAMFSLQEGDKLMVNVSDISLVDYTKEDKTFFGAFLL
Method: FIGS. 3A-B. Screening for improved DR3 mutants using yeast surface display (YSD). […] Expression and TL1A binding are detected by fluorescent antibodies and streptavidin, respectively. (B) Flow cytometry histogram analysis of cell population displaying WT DR3, DR3 mutant library after two rounds (R2) and three rounds of enrichment (R3) for binding to TL1A. Cell population that lacks surface display is shown in black. Analysis of cells was performed following incubation with 0.2 μM of TL1A.
Briefly, EBY100 cells transformed with plasmid pCTCON containing the desired clone were grown in SDCAA media (20 g […], 6.7 g yeast nitrogen base, 5 g casamino acids, 5.4 g Na2HPO4 and 8.56 g NaH2PO4*H2O) at 30° C. to logarithmic phase. Then, 2*10⁶ of cells were washed, resuspended in SGCAA induction media (similar to SDCAA but containing galactose instead of […]) and grown at 30° C. with shaking for an additional 18 hours. Induced cells (1*10⁶) were collected by centrifugation, washed with PBSF (PBS+1 g/L BSA) and incubated for 1 hour at […] with 0.2 μM TL1A (R&D Systems) that was biotinylated using biotin labeling kit (Pierce) according to manufacturer's procedure. […] The labeled cells were washed, resuspended with PBSF and analyzed by flow cytometry (FACS Calibur, BD).

[2] = target: T1, TNF-like 1A (TL1A); experiment: SPR (ProteOn XPR36), DR3-Fc immobilized, TL1A as analyte
Method: The affinity of TL1A binding to DR3 variants was determined by surface plasmon resonance (SPR) measurements on a ProteOn XPR36 (Bio-Rad) instrument. All samples were in PBS containing 2 mM of DTT. A GLC Chip was air-initialized and activated with EDC/S-NHS. 5 μg from each of the DR3 variants were diluted in acetate buffer, pH 5.5, and immobilized onto the chip as a reference and BSA was also loaded onto the chip. After blocking available unbound sites on the chip with ethanolamine, the chip was washed with HBST buffer and rotated. TL1A was run at 30 μl/min for 300 sec at various concentrations (100, 50, 25, 12.5 and 6.25 nM), followed by a 10-min dissociation step. Binding parameters were determined with the Langmuir single binding site model, using the Bio-Rad's proteOn Manager software V2.1.2.05.
Next, the TL1A binding affinity to the different DR3 variants was characterized using surface plasmon resonance (Table 3).

[3] = target: T1, TNF-like 1A (TL1A); experiment: ELISA screen, HEK293 medium with secreted DR3-Fc on captured TL1A
Method: The plates were then washed with PBST and blocked by incubation with 150 μl of PBS supplemented with 3% skim milk for 1 hour. Following blocking, the plates were washed and incubated with 100 μl of media of HEK293T transfected with WT or DR3 mutants harvested 48 or 72 hours post transfection, ELISA plates were shaken for additional hour. DR3-Fc (R&D Systems) was added at a concentration of 2 μg/ml as a positive control, and PBS supplemented with 1% BSA served as a negative control. Plates were then washed with PBST, incubated with 100 μl of 0.05 μg/ml of biotinylated goat polyclonal α-DR3 antibodies (R&D Systems), followed by incubation with secondary peroxidase-conjugated streptavidin (Jackson, 1:10000 dilution). Finally, 100 μl of horseradish peroxidase (HRP) chromogenic 3,3′,5,5′-tetramethylbenzidine (TMB) substrate solution (Dako) were added. The reaction was stopped by the addition of 1 M sulfuric acid and recorded at 450 nm using a Tecan Infinite M200 plate reader.
To identify single DR3 mutant candidates with enhanced binding affinity for TL1A, the FACS-enriched library was sub-cloned into a mammalian vector containing leader peptide and fused with human IgG1 Fc. […] Thus, the mammalian based expression of soluble DR3 receptor offers the advantage of maintaining the native protein posttranslational modifications including glycosylation. To obtain high level of DR3 expression in mammalian cells, the leader peptide sequence was optimized (FIG. 4), transfection and expression conditions in HEK293F cells (see Experimental Procedures for details). To facilitate the screening of a relatively large number of DR3 mutants, cells were transfected in 24 plate format and the secreted DR3 was examined for TL1A interaction using ELISA. A fast and sensitive ELISA that is based on immobilizing TL1A on multi-well plates and detecting DR3 binding using specific antibodies was developed (FIG. 5).

B1: DR3 (receptor, human, UniProt Q93038 25-199, looked up)
receptor extracellular domain displayed on the yeast surface as an Aga2 fusion: QGGTRSPRCDCAGDFHKKIGLFCCRGCPAGHYLKAPCTEPCGNSTCLVCPQDTFLAWENHHNSECARCQACDEQASQVALENCSAVADTRCGCKPGWFVECQVSQCVSSSPFYCQPCLDCGALHRHTRLLCSRRDTDCGTCLPGFYEHGDGCVSCPTSTLGSCPERCAAVCGWRQ
notes: extracellular domain, wild type, Aga2 fusion on EBY100 yeast
- binding result [1]: binds

B2: WT DR3 extracellular domain fused with human IgG1 Fc (DR3-Fc WT) (Fc fusion)
chain: GGTRSPRCDCAGDFHKKIGLFCCRGCPAGHYLKAPCTEPCGNSTCLVCPQDTFLAWENHHNSECARCQACDEQASQVALENCSAVADTRCGCKPGWFVECQVSQCVSSSPFYCQPCLDCGALHRHTRLLCSRRDTDCGTCLPGFYEHGDGCVSCPTSTLGSCPERCAAVCGWRQIEGRMDRSVECPPCPAPPVAGPSVFLFPPKPKDTLMISRTPEVTCVVVDVSHEDPEVKFNWYVDGVEVHNAKTKPREEQYNSTYRVVSVLTVLHQDWLNGKEYKCKVSNKGLPSSIEKTISKAKGQPREPQVYTLPPSREEMTKNQVSLTCLVKGFYPSDIAVEWESNGQPENNYKTTPPVLDSDGSFFLYSKLTVDKSRWQQGNVFSCSVMHEGLHNHYTQKSLSLSPGK
notes: also called DR3 WT; soluble DR3 WT
- Kd [2]: 44.9 nM
- koff [2]: 0.00072 s⁻¹
- kon [2]: 16000 M⁻¹ s⁻¹

B3: DR3 variant having SEQ ID NO: 2, fused with human IgG1 Fc (Fc fusion)
chain: GGTRSPRCDCAGDFHKKYGLFCCRGCPAGHYLKAPCTEPCGNSTCLPCPQGTFLAWENHHNSECTRCQACDEQASQVALENCSAVADTRCGCAPGWFVECSVSQCVSSSPFYCQPCLDCGALHRHTRLPCSRRDTDCGTCLPGFYEHGDGCVSCPTSTLGSCPERCAAVCGWRQIEGRMDRSVECPPCPAPPVAGPSVFLFPPKPKDTLMISRTPEVTCVVVDVSHEDPEVKFNWYVDGVEVHNAKTKPREEQYNSTYRVVSVLTVLHQDWLNGKEYKCKVSNKGLPSSIEKTISKAKGQPREPQVYTLPPSREEMTKNQVSLTCLVKGFYPSDIAVEWESNGQPENNYKTTPPVLDSDGSFFLYSKLTVDKSRWQQGNVFSCSVMHEGLHNHYTQKSLSLSPGK
notes: Linker and Fc as for m2
- Fold increase in Affinity (against WT) [2]: 5 fold
- Kd [2]: 8.26 nM
- koff [2]: 0.000351 s⁻¹
- kon [2]: 42600 M⁻¹ s⁻¹

B4: DR3 variant having SEQ ID NO: 3, fused with human IgG1 Fc (Fc fusion)
chain: GGTRSPRCDCAGDFHKKTGLFCCRGCPAGHYLKAPCTEPCGNSTCLPCPQGTFLAWENHHESECARCQACDEQASQVALENCSAVADTRCGCEPGWFVECQVSPCVSSSPFYCQPCLDCGALHRHTRLPCSRRDTDCGTCLPGFYEHGDGCVSCPTSTLGSCPERCAAVCGWRQIEGRMDRSVECPPCPAPPVAGPSVFLFPPKPKDTLMISRTPEVTCVVVDVSHEDPEVKFNWYVDGVEVHNAKTKPREEQYNSTYRVVSVLTVLHQDWLNGKEYKCKVSNKGLPSSIEKTISKAKGQPREPQVYTLPPSREEMTKNQVSLTCLVKGFYPSDIAVEWESNGQPENNYKTTPPVLDSDGSFFLYSKLTVDKSRWQQGNVFSCSVMHEGLHNHYTQKSLSLSPGK
notes: Linker and Fc as for m2
- Fold increase in Affinity (against WT) [2]: 6.6 fold
- Kd [2]: 6.79 nM
- koff [2]: 0.000237 s⁻¹
- kon [2]: 34900 M⁻¹ s⁻¹

B5: DR3 variant having SEQ ID NO: 4, fused with human IgG1 Fc (Fc fusion)
chain: GGTRSPRCDCAGDFHKKYGLFCCRGCPAGHYLKAPCTEPCGNSTCLVCPQGTFLAWENHHNSECARCQACDEQASQVALENCSAVADTRCGCEPGWFVECQVSQCVSSSPFYCQPCLDCGALHRHTRLPCSRRDTDCGTCLPGFYEHGDGCVSCPTSTLGSCPERCAAVCGWRQIEGRMDRSVECPPCPAPPVAGPSVFLFPPKPKDTLMISRTPEVTCVVVDVSHEDPEVKFNWYVDGVEVHNAKTKPREEQYNSTYRVVSVLTVLHQDWLNGKEYKCKVSNKGLPSSIEKTISKAKGQPREPQVYTLPPSREEMTKNQVSLTCLVKGFYPSDIAVEWESNGQPENNYKTTPPVLDSDGSFFLYSKLTVDKSRWQQGNVFSCSVMHEGLHNHYTQKSLSLSPGK
notes: Linker and Fc as for m2
- Fold increase in Affinity (against WT) [2]: 4.6 fold
- Kd [2]: 9.83 nM
- koff [2]: 0.000357 s⁻¹
- kon [2]: 36300 M⁻¹ s⁻¹

B6: DR3 variant having SEQ ID NO: 5, fused with human IgG1 Fc (Fc fusion)
chain: GGTRSPRCDCAGDFHKKIGLFCCRGCPAGHYLKAPCTKPCGNSTCLPCPQDTFLARENHHNSECTRCQACDEQASQVALENCSAVADTRCGCAPGWFVECSVSQCVSSSPFYCQPCLDCGALHRHTRLPCSRRDTDCGTCLPGFYEHGDGCVSCPTSTLGSCPERCAAVCGWRQIEGRMDRSVECPPCPAPPVAGPSVFLFPPKPKDTLMISRTPEVTCVVVDVSHEDPEVKFNWYVDGVEVHNAKTKPREEQYNSTYRVVSVLTVLHQDWLNGKEYKCKVSNKGLPSSIEKTISKAKGQPREPQVYTLPPSREEMTKNQVSLTCLVKGFYPSDIAVEWESNGQPENNYKTTPPVLDSDGSFFLYSKLTVDKSRWQQGNVFSCSVMHEGLHNHYTQKSLSLSPGK
notes: Linker and Fc as for m2
- Fold increase in Affinity (against WT) [2]: 1.7 fold
- Kd [2]: 26.9 nM
- koff [2]: 0.000643 s⁻¹
- kon [2]: 23900 M⁻¹ s⁻¹

B7: DR3 variant having SEQ ID NO: 6, fused with human IgG1 Fc (Fc fusion)
chain: GGTRSPRCDCAGDFQKKIGLFCCRGCPAGHYLKAPCTEPCGNSTCLPCPQDTFLARENHHNSECARCQACDEQASQVALENCSAVADTRCGCKPGWFVECQVSPCVSSSPFYCQPCLDCGALHRHTRLLCSRRDTDCGTCLPGFYEHGDGCVSCPTSTLGSCPERCAAVCGWRQIEGRMDRSVECPPCPAPPVAGPSVFLFPPKPKDTLMISRTPEVTCVVVDVSHEDPEVKFNWYVDGVEVHNAKTKPREEQYNSTYRVVSVLTVLHQDWLNGKEYKCKVSNKGLPSSIEKTISKAKGQPREPQVYTLPPSREEMTKNQVSLTCLVKGFYPSDIAVEWESNGQPENNYKTTPPVLDSDGSFFLYSKLTVDKSRWQQGNVFSCSVMHEGLHNHYTQKSLSLSPGK
notes: Tested as secreted Fc fusion in HEK293 medium (ELISA screen); Linker and Fc as for m2
- binding result [3]: binds

B8: DR3 variant having SEQ ID NO: 7, fused with human IgG1 Fc (Fc fusion)
chain: GGTRSPRCDCAGDFHKKIGLFCCRGCPAGHYLKAPCTKPCGNSTCLPCPQDTFLAWENHHNSECTRCQACDEQASQVALENCSAVADTRCGCKPGWFVECSVSQCVSSSPFYCQPCLDCGALHRHTRLLCSRRDTDCGTCLPGFYEHGDGCVSCPTSTLGSCPERCAAVCGWRQIEGRMDRSVECPPCPAPPVAGPSVFLFPPKPKDTLMISRTPEVTCVVVDVSHEDPEVKFNWYVDGVEVHNAKTKPREEQYNSTYRVVSVLTVLHQDWLNGKEYKCKVSNKGLPSSIEKTISKAKGQPREPQVYTLPPSREEMTKNQVSLTCLVKGFYPSDIAVEWESNGQPENNYKTTPPVLDSDGSFFLYSKLTVDKSRWQQGNVFSCSVMHEGLHNHYTQKSLSLSPGK
notes: as for B7
- binding result [3]: binds

B9: DR3 variant having SEQ ID NO: 9, fused with human IgG1 Fc (Fc fusion)
chain: GGTRSPRCDCAGDFQKKIGLFCCRGCPAGHYLKAPCTEPCGNSTCLPCPQDTFLAWENHHESECARCQACDEQASQVALENCSAVADTRCGCEPGWFVECSVSPCVSSSPFYCQPCLDCGALHRHTRLPCSRRDTDCGTCLPGFYEHGDGCVSCPTSTLGSCPERCAAVCGWRQIEGRMDRSVECPPCPAPPVAGPSVFLFPPKPKDTLMISRTPEVTCVVVDVSHEDPEVKFNWYVDGVEVHNAKTKPREEQYNSTYRVVSVLTVLHQDWLNGKEYKCKVSNKGLPSSIEKTISKAKGQPREPQVYTLPPSREEMTKNQVSLTCLVKGFYPSDIAVEWESNGQPENNYKTTPPVLDSDGSFFLYSKLTVDKSRWQQGNVFSCSVMHEGLHNHYTQKSLSLSPGK
notes: as for B7
- binding result [3]: binds

Reference: patent publication US20170114118A1 (NATIONAL INSTITUTE FOR BIOTECHNOLOGY I, published 2017)
